From EP4755920A1 (Simcere Pharmaceutical Co., Ltd., dated 2026)
Read-outs that look alike come from different tables or passages of the source.

Columns and labels:
hIL4Rα-ECD(26-232)-His [1] = molecular target: T1, hIL4Rα-ECD(26-232)-His (human, UniProt P24394 26-232); experiment: SPR (Biacore 8K), antibody captured on Protein A, antigen as analyte, 1:1 model
T1 construct: Labelled with biotin (NH2-reactive) for the ELISA; unlabelled as analyte in Biacore; also called hIL4Rα-ECD-His

hIL4Rα-ECD(26-232)-mFc = molecular target: T2, hIL4Rα-ECD(26-232)-mFc (human); experiment: competition ELISA, hIL4R-ECD-mFc captured by anti-mFc, biotinylated human IL4 as competitor
T2 construct: also called IL4Rα-ECD protein

hIL4Rα-ECD(26-232)-His [2] = molecular target: T1, hIL4Rα-ECD(26-232)-His; experiment: SPR (Biacore 8K), antibody captured on Protein A, antigen as analyte, 1:1 model; remark: listed apart in the source

Row | Binder | Kd (hIL4Rα-ECD(26-232)-His [1]) | koff (hIL4Rα-ECD(26-232)-His [1]) | kon (hIL4Rα-ECD(26-232)-His [1]) | IC50 (hIL4Rα-ECD(26-232)-mFc) | Kd (hIL4Rα-ECD(26-232)-His [2])
1 | IL4R-CHI-07 (antibody, V domains shown, Chimeric IgG: murine variable regions on human IgG4 CH1-CH2-CH3 and human kappa constant regions; also called anti-IL4Rα chimeric antibody 07) VH: QVQLQQSGAELVKPGASVKLSCKASGYTFTEYTIHWVKQRSGQGLEWIGWFYPGRGSIKYNEKFKDKATLTADKSSSTVYMELSRLTSEDSAVYFCTRHEYRGSNYAMDYWGQGTSVTVSS VL: DVLMTQTPLSLPVSLGDQASISCRSSQSIVHSSGNTYLQWYLQKPGQSPKLLIYKVSNRFSGVPDRFSGSGSGTDFTLKISRVEAEDLGVYYCFQGSHVPPTFGGGTKLEIK |  |  |  |  | 0.294 nM
2 | IL4R-CHI-18 (antibody, V domains shown, Chimeric IgG: murine variable regions on human IgG4 CH1-CH2-CH3 and human kappa constant regions; also called anti-IL4Rα chimeric antibody 18) VH: QVQLKQSGPGLVQPSQSLSVTCTVSGFSLTNYGVHWVRQSPGKGLEWLGVIWSGGSTDYNAAFKSRLSISKDNSKSQVFFKMNSLQADDTAIYYCARNKGTRPVFDYWGQGTTLTVSS VL: DIQMTQSPASLSASVGETVTITCRASENIYSYLAWYQQKQGKSPQLLVYNAKTLAEGVPSRFSGSGSGTQFSLKINSLQPEDFGSYYCQHYVSPLTFGAGTKLEVK |  |  |  |  | 0.0943 nM
3 | IL4R-CHI-17 (antibody, V domains shown, Chimeric IgG: murine variable regions on human IgG4 CH1-CH2-CH3 and human kappa constant regions; also called anti-IL4Rα chimeric antibody 17) VH: QAYLQQSGAELVRPGASVKMSCKASGYTFTSYNMHWAKQTPRQGLEWIGSIYPGNGDTSYNQKFKGKATLTVDKSSSTAYMQLSSLTSEDSAVYFCARGGRLRRGDWFAYWGQGTLVTVSA VL: DIQMTQSPASLSASVGETVTITCRASENIYSYLIWYQQKQGKSPQLLVYDAKTLAEGVPSRFSGSGSGSQFSLKINSLQPEDFGTYYCQHHYGTPLTFGGGTKLELK |  |  |  |  | 0.289 nM
4 | IL4R-CHI-04 (antibody, V domains shown, Chimeric IgG: murine variable regions (from hybridoma IL4R-SFM-04) on human IgG4 CH1-CH2-CH3 and human kappa constant regions; also called anti-IL4Rα chimeric antibody 04) VH: DVQLQESGPGLVKPSQSLSLTCTVTGYSITSDYAWNWIRQFPGNKLEWMGYISYSGSSSYNPSLKSRISITRDTSKNQFFLQLNSVTTDDTATYYCAGGGLRRRGLFDYWGQGTTLTVSS VL: QIVLSQSPAILSASPGEKVTMTCRATSSVTYMHWYQQKPGSSPKPWIYATSNLASGVPARFSGSGSGTSYSLTISRVEAEDTATYYCQQWSSIPLTFGAGTKLELK |  |  |  |  | 0.513 nM
5 | IL4R-CHI-13 (antibody, V domains shown, Chimeric IgG: murine variable regions on human IgG4 CH1-CH2-CH3 and human kappa constant regions; also called anti-IL4Rα chimeric antibody 13) VH: EVQLQQSGPVLVKPGASVKMSCKASGYTFTDYYMNWVKQRHGKSLDWIGTINPYNGGTGYNQKFKGKATLTVDKSSSTAYMELNSLTSEDSAVYFCARSLLRRRGAMDYWGQGTSVTVSS VL: DIVLTQSPASLVVSLGQRATISCRASKSVSTSGYGYIHWYRQKPGQPPKLLIYLVSNLESGVPARFSGSGSGTDFTLNIHPVEEEDAATYYCQHIRELYTFGGGTKLEIK |  |  |  |  | 0.0779 nM
6 | IL4R-CHI-14 (antibody, V domains shown, Chimeric IgG: murine variable regions on human IgG4 CH1-CH2-CH3 and human kappa constant regions; also called anti-IL4Rα chimeric antibody 14) VH: EVMLVESGGGLVKPGGSLKLSCAASGFTFSSYAMSWVRQTPEKRLEWVAIISGGGDSTYYPDSVKGRFTISRDNAKNTLYLQMSSLRSEDTALYFCARLHYWYFDFWGTGTTVTVSS VL: DIQMTQSSSSFSVSLGDRVTITCKASEDLYNRLAWYQQKPGNAPRLLISGATSLETGVPSRFSGSGSGRDYTLIITSLQTEDVATYYCQQYWRNPYTFGGGTKLEIK |  |  |  |  | 0.097 nM

More lines, now with the values ahead:

Row | Kd (hIL4Rα-ECD(26-232)-His [1]) | koff (hIL4Rα-ECD(26-232)-His [1]) | kon (hIL4Rα-ECD(26-232)-His [1]) | IC50 (hIL4Rα-ECD(26-232)-mFc) | Kd (hIL4Rα-ECD(26-232)-His [2]) | Binder
7 | 0.283 nM | 0.000302 s⁻¹ | 1.07e+06 M⁻¹ s⁻¹ | 1.82 nM |  | IL4R-hum-17L1H4 (antibody, V domains shown, also called humanized antibody of IL4R-CHI-17, L1 + H4) VH: EVQLVQSGAEVKKPGASVKVSCKASGYTFTSYNMHWARQAPGQRLEWMGSIYPGNGDTSYNQKFKGRVTITVDKSASTAYMELSSLRSEDTAVYYCARGGRLRRGDWFAYWGQGTLVTVSS VL: DIQMTQSPSSLSASVGDRVTITCRASENIYSYLIWYQQKPGKSPKLLIYDAKTLAEGVPSRFSGSGSGTDFTLTISSLQPEDFATYYCQHHYGTPLTFGGGTKVEIK
8 | 0.0692 nM | 9.25e-05 s⁻¹ | 1.34e+06 M⁻¹ s⁻¹ | 1.92 nM |  | IL4R-hum-13H1aL2a (antibody, V domains shown, also called humanized antibody of IL4R-CHI-13, H1a + L2a) VH: EVQLVQSGAEVKKPGASVKVSCKASGYTFTDYYMNWVRQAPGQRLEWMGTINPYNAGTGYNQKFKGRVTITVDKSASTAYMELSSLRSEDTAVYYCARSLLRRRGAMDYWGQGTTVTVSS VL: DIVLTQSPDSLAVSLGERATINCRASKSVSTSGYGYIHWYQQKPGQPPKLLIYLVDNLESGVPDRFSGSGSGTDFTLTISSLQAEDVATYYCQHIRELYTFGGGTKVEIK
9 | 0.315 nM | 0.000468 s⁻¹ | 1.48e+06 M⁻¹ s⁻¹ | 1.41 nM |  | IL4R-hum-07H1L3 (antibody, V domains shown, also called IL4AR-hum-07H1L3; humanized antibody of IL4R-CHI-07, H1 + L3) VH: EVQLVQSGAEVKKPGSSVKVSCKASGYTFSEYTIHWVRQAPGQGLEWMGWFYPGRGSIKYNEKFKDRVTITADKSTSTAYMELSSLRSEDTAVYYCTRHEYRGSNYAMDYWGQGTTVTVSS VL: DIVMTQSPDSLAVSLGERATINCRSSQSIVHSSGNTYLQWYQQKPGQSPKLLIYKVSNRFSGVPDRFSGSGSGTDFTLTISSLQAEDVAVYYCFQGSHVPPTFGGGTKVEIK
10 | 0.233 nM | 0.000445 s⁻¹ | 1.91e+06 M⁻¹ s⁻¹ | 1.52 nM |  | IL4R-hum-04H7L1 (antibody, V domains shown, also called humanized antibody of IL4R-CHI-04, H7 + L1) VH: EVQLQESGPGLVKPSETLSLTCTVSGYSISSDYAWNWIRQPPGKGLEWIGYISYSGSSSYNPSLKSRVTISVDTSKNQFSLKLSSVTAADTAVYYCARGGLRRRGLFDYWGQGTTVTVSS VL: DIQLTQSPSFLSASVGDRVTITCRATSSVTYMHWYQQKPGKAPKPWIYATSNLASGVPSRFSGSGSGTEFTLTISSLQPEDFATYYCQQWSSIPLTFGQGTKLEIK
11 | 0.0763 nM | 0.000151 s⁻¹ | 1.98e+06 M⁻¹ s⁻¹ | 2.39 nM |  | IL4R-hum-18H5L1 (antibody, V domains shown, also called humanized antibody of IL4R-CHI-18, H5 + L1) VH: EVTLKESGPVLVKPTETLTLTCTVSGFSLTNYGVHWIRQPPGKALEWLGVIWSGGSTDYNAAFKSRLTISKDNSKSQVVLTMTNMDPVDTATYYCARNKGTRPVFDYWGQGTTVTVSS VL: DIQMTQSPSSLSASVGDRVTITCRASENIYSYLAWYQQKPGKAPKLLIYNAKTLAEGVPSRFSGSGSGTDFTLTISSLQPEDFATYYCQHYVSPLTFGQGTKLEIK
12 | 0.154 nM | 5.07e-05 s⁻¹ | 329000 M⁻¹ s⁻¹ | 2.2 nM |  | IL4R-hum-14L2H2 (antibody, V domains shown, also called humanized antibody of IL4R-CHI-14, L2 + H2) VH: EVQLVESGGGLVQPGGSLRLSCAASGFTFSSYAMSWVRQAPEKRLEWVAIISGGGDSTYYPDSVKGRFTISRDNAKNSLYLQMNSLRAEDTAVYYCARLHYWYFDFWGQGTTVTVSS VL: DIQMTQSPSSLSASVGDRVTITCKASEDLYNRLAWYQQKPGKAPKLLISGATSLETGVPSRFSGSGSGRDFTLTISSLQPEDFATYYCQQYWRNPYTFGGGTKVEIK
